Measurements: PMC6250670

Molecular target: MucR from Brucella abortus (wild-type full-length protein) (Brucella abortus)
Assay: SEC-MALS

MucR from Brucella abortus (wild-type full-length protein) (natural protein)
stoichiometry N: 10.4
